The test system of this series is K4 kissing-loop RNA reporter. Kind of series: apparent KD of K4 kissing-loop reporter; higher = weaker reporter binding. The following applies: Eterna round: R107. As to the method:
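RNA-MaP round R107: designed RNA switches with theophylline, tryptophan, arginine or FMN aptamers are transcribed on-chip within common flanks. They are titrated with a labelled K4 kissing-loop RNA reporter in RNA-MaP buffer (100 mM Tris pH 7.5, 80 mM KCl, 4 mM MgCl2), without ligand or with the indicated ligand. Median apparent KD per design.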

[1] abbreviates: input ligand: theophylline 20 uM.
Setting [2] is: input ligand: tryptophan 2.4 mM.
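Also: bound reporter read as fluorescence of individual clusters on recovered sequencing chips by microscopy, with normalized cluster intensities fitted with a binding model.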

In the case of “ACGUGCACUAGUGAUGUUGGAAAAUAGGAAGGAGCGGGCGAAAGCCCAGGUAGGUCGCCUAAUAGCACGAGCCACGAAAGUGGCA”, the “apparent KD of K4 kissing-loop reporter” value is, setting by setting: (input ligand: FMN 200 uM) 0.376 µM; (input ligand: arginine 13.2 mM) 0.514 µM; (input ligand: none) 0.645 µM; under setting [1], 0.774 µM; under setting [2], 0.522 µM.

As to “ACGUGCCCAGUGAUGUUGGAUAAAUAUGAAGGAGCGUGCGAAAGCACAGGUAGGUCGCAUAAUAGCACGAGCCACGAAAGUGGCA [#SwitchBubble 7 #K4Early #Sliding]”, the “apparent KD of K4 kissing-loop reporter” value (input ligand: FMN 200 uM) stood at 0.179 µM; the “apparent KD of K4 kissing-loop reporter” value (input ligand: arginine 13.2 mM) was 0.2 µM; the “apparent KD of K4 kissing-loop reporter” value (input ligand: none) came to 0.181 µM; the “apparent KD of K4 kissing-loop reporter” value under setting [1] amounted to 0.245 µM; the “apparent KD of K4 kissing-loop reporter” value under setting [2] stood at 0.134 µM.

Consider “ACUAUCGAAAGAUAGUUCCCAGAGCUAGUAGAGGAUAUCUGGAAACAGAGAAGGCUACAAGAGUGAUGUUCUUCUAGCUUUGGGA”, for which the “apparent KD of K4 kissing-loop reporter” value is, setting by setting: (input ligand: FMN 200 uM) 0.403 µM; (input ligand: arginine 13.2 mM) 0.291 µM; (input ligand: none) 0.316 µM; under setting [1], 0.337 µM; under setting [2], 0.349 µM.

Regarding “AGAACUGUCUGAGAUACCAGCCAAGGAGUGAUGUUCCGGCUCGACGAAACGUCGAGCCAUGGCCCUUGGCAGCUCAGACAGUUCA [Omei KL Theo B SS A v2]”, the “apparent KD of K4 kissing-loop reporter” value by setting is: (input ligand: FMN 200 uM) 0.249 µM; (input ligand: arginine 13.2 mM) 0.116 µM; (input ligand: none) 0.195 µM; under setting [1], 0.191 µM; under setting [2], 0.102 µM.

For the sequence “AGACUACCACACUGUCAAUAGACAGUGGACUAGGAUAUGCUGAUAAGCAGAAGGAGUGAUGUUCCCAGGUAGUCAAUAAAAUAAU [FmnAX 13 G28+C66]”, the “apparent KD of K4 kissing-loop reporter” value by setting is: (input ligand: FMN 200 uM) 0.215 µM; (input ligand: arginine 13.2 mM) 0.205 µM; (input ligand: none) 0.225 µM; under setting [1], 0.322 µM; under setting [2], 0.246 µM.

Consider “AGACUACUGAUAGGAUAUAACAUCCUAGUCGUAUACCGAAAGGUAUACGAAACCCUUCUAGUGAUGUUAGAAGGGUCGGUAGUCA [Omei KL FMN B Exc B v9]”, for which the “apparent KD of K4 kissing-loop reporter” value was 0.0798 µM (input ligand: FMN 200 uM); 0.0671 µM (input ligand: arginine 13.2 mM); 0.0809 µM (input ligand: none); 0.0596 µM under setting [1]; 0.0694 µM under setting [2].

For the sequence “AGACUUCACCGAAGGAGCGACGUGGCCUAGUGAUGUUAGGCACGAGAGAAAUCUCGUGUACGUCAGGUAGGUCGCGGUGAAGUCA [Omei KL Arginine B SS C v7]”, the “apparent KD of K4 kissing-loop reporter” value (input ligand: FMN 200 uM) is 0.909 µM; the “apparent KD of K4 kissing-loop reporter” value (input ligand: arginine 13.2 mM) worked out at 0.648 µM; the “apparent KD of K4 kissing-loop reporter” value (input ligand: none) came to 0.939 µM; the “apparent KD of K4 kissing-loop reporter” value under setting [1] is 0.862 µM; the “apparent KD of K4 kissing-loop reporter” value under setting [2] is 0.816 µM.

For the sequence “AGAGUCGGCUGUGAUACCAGUCGUAUUACAACAUGUCGCAGUGAUGUUGCGAGAUAGGAUGACCCUUGGCAGCACUCAGUACGAU [Same State Theophylline B GF 8]”, the “apparent KD of K4 kissing-loop reporter” value runs as follows: (input ligand: FMN 200 uM) 0.347 µM; (input ligand: arginine 13.2 mM) 0.277 µM; (input ligand: none) 0.421 µM; under setting [1], 0.503 µM; under setting [2], 0.323 µM.

Take “AGAGUUAAUUAGUCUUUUUUCACAUUAAGUCAGGAUAUCGUAUUUUCGAGAAGGGACACAUGCUAGUGAUGUUAGCUAUUUCUCA [JR_Nu3_ExcFMNA_Sub020]”: the “apparent KD of K4 kissing-loop reporter” value reads like this: (input ligand: FMN 200 uM) 0.0601 µM; (input ligand: arginine 13.2 mM) 0.103 µM; (input ligand: none) 0.0675 µM; under setting [1], 0.114 µM; under setting [2], 0.0596 µM.

For “AGAGUUAUGCGAGGAUAUGCAGUUAGUACUCAAAGAGUACUAACGCAGAGUGAUGUUCUGUGAAAUGCAGAAGGUGCAUAACUCA [Omei KL FMN B SS B v5]”, the “apparent KD of K4 kissing-loop reporter” value was found to be 0.157 µM (input ligand: FMN 200 uM); 0.316 µM (input ligand: arginine 13.2 mM); 0.33 µM (input ligand: none); 0.316 µM under setting [1]; 0.289 µM under setting [2].

For “AGCAUUUUCAGAAGGAGCGUGAAUUAUUCAUAAUUAUAUUAUACGAGUGAUGUUCGUAUUUCACAGGUAGGUCGCUGAUAUAGCA [JR_SSArginiB_Sub002]”, the “apparent KD of K4 kissing-loop reporter” value was 0.0514 µM (input ligand: FMN 200 uM); 0.0783 µM (input ligand: arginine 13.2 mM); 0.0501 µM (input ligand: none); 0.0816 µM under setting [1]; 0.0466 µM under setting [2].

For the sequence “AGCCGAAAGGCGAGUGCUGUCACUCCGGAAGGAGCGCUCGAAAGAGCAGGUAGGUCGCCGGAGUGAUGUUCCGGUGCAGCACUCA [Omei KL Arginine A Exc B v5]”, the “apparent KD of K4 kissing-loop reporter” value (input ligand: FMN 200 uM) amounted to 0.654 µM; the “apparent KD of K4 kissing-loop reporter” value (input ligand: arginine 13.2 mM) worked out at 0.39 µM; the “apparent KD of K4 kissing-loop reporter” value (input ligand: none) was 1.25 µM; the “apparent KD of K4 kissing-loop reporter” value under setting [1] worked out at 1.21 µM; the “apparent KD of K4 kissing-loop reporter” value under setting [2] was found to be 1.1 µM.

Take “AGCCGUCUAAGUGAUGUUUAGGCAUGUCAGCGAGGACCGGUACGGCCGCCACUCGUGCUAUUGAGAUUUCGGGUAGCCCACGUAG [theeternabot_sameState_KL_Trp_A_20]”: the “apparent KD of K4 kissing-loop reporter” value runs as follows: (input ligand: FMN 200 uM) 0.288 µM; (input ligand: arginine 13.2 mM) 0.187 µM; (input ligand: none) 0.271 µM; under setting [1], 0.125 µM; under setting [2], 0.163 µM.

Take “AGCGAGUGAUGUUCGCUGAUCAUGAGAAGUUAGGAUAUAUACUUGCAUAGAAGGAACUAUUUCAUGACAUUAGAGGCAGUAGUUC [FMN A SS t7]”: the “apparent KD of K4 kissing-loop reporter” value is 0.159 µM (input ligand: FMN 200 uM); 0.16 µM (input ligand: arginine 13.2 mM); 0.158 µM (input ligand: none); 0.152 µM under setting [1]; 0.125 µM under setting [2].

Turning to “AGCGGCCAGUCGGCCGCCACUCCAGGCAGUGAUGUUGCGAAGUUUCUACUAGAGUGAUGUUCUAAGAGGACCGGGACUGACGUAA [Exclusion Tryptophan B Gf 9]”, the “apparent KD of K4 kissing-loop reporter” value was 0.217 µM (input ligand: FMN 200 uM); 0.218 µM (input ligand: arginine 13.2 mM); 0.253 µM (input ligand: none); 0.291 µM under setting [1]; 0.199 µM under setting [2].

For the sequence “AGCUAGUACGCAGGAUAUUGAACAUCAUUUAGUGAGAUCGAGUGAUGUUCGAUCACGACUUCAGUUCGAGAAGGGCGUACUAGCA [#02 K4 FMN B Same State]”, the “apparent KD of K4 kissing-loop reporter” value (input ligand: FMN 200 uM) stood at 0.16 µM; the “apparent KD of K4 kissing-loop reporter” value (input ligand: arginine 13.2 mM) was found to be 0.663 µM; the “apparent KD of K4 kissing-loop reporter” value (input ligand: none) is 0.931 µM; the “apparent KD of K4 kissing-loop reporter” value under setting [1] was found to be 1.07 µM; the “apparent KD of K4 kissing-loop reporter” value under setting [2] is 0.861 µM.

For “AGCUAGUGAAACUAGUUUAAACUAGGUGAAGGAGCGAUCGAAAGAUCAGGUAGGUCGCACCUAACUGAGUGAUGUUCAGGAAAUA [KL-SSArg-A4]”, the “apparent KD of K4 kissing-loop reporter” value turned out to be 0.0671 µM (input ligand: FMN 200 uM); 0.0543 µM (input ligand: arginine 13.2 mM); 0.0707 µM (input ligand: none); 0.0667 µM under setting [1]; 0.0613 µM under setting [2].

Regarding “AGGAGCGUGCGAUGAAAAUCGCACGCUCCUCGAGGACCGGUACGGCCGCCACUCGCUCGCGCCGAGUGAUGUUCGGCCGGCGAAC [#2 Same State - Tryptophan A Attempt #8 (HarryS)]”, the “apparent KD of K4 kissing-loop reporter” value (input ligand: FMN 200 uM) is 0.194 µM; the “apparent KD of K4 kissing-loop reporter” value (input ligand: arginine 13.2 mM) stood at 0.18 µM; the “apparent KD of K4 kissing-loop reporter” value (input ligand: none) was 0.234 µM; the “apparent KD of K4 kissing-loop reporter” value under setting [1] stood at 0.269 µM; the “apparent KD of K4 kissing-loop reporter” value under setting [2] was 0.966 µM.

Turning to “AGGCACGAGCAAGGAUAUCGAGUAGAGUGAUGUUCUGCCUGGGUUGGCCCGAAAGGGCCUUCCCAGCGAGAAGGUGCUCGUGCCU [#2 Same State - FMN A Attempt #9 (HarryS)]”, the “apparent KD of K4 kissing-loop reporter” value is, setting by setting: (input ligand: FMN 200 uM) 0.222 µM; (input ligand: arginine 13.2 mM) 0.588 µM; (input ligand: none) 0.766 µM; under setting [1], 0.492 µM; under setting [2], 0.863 µM.

Turning to “AGGCACGAGCAAGGAUAUUGAGUAGAGUGAUGUUCUGCCUGGGUUGGCUCGUAAGAGCCUUCUCAGCGAGAAGGUGCUCGUGCCU [#2 Same State - FMN A Attempt #23 (HarryS)]”, the “apparent KD of K4 kissing-loop reporter” value was found to be 0.254 µM (input ligand: FMN 200 uM); 0.432 µM (input ligand: arginine 13.2 mM); 0.679 µM (input ligand: none); 0.552 µM under setting [1]; 0.636 µM under setting [2].

Take “AGGUACUACGGAAGGAGCGCACCAGUGAUGUUGGUGUGUGACCGUGACAUGGCAGUCAAGGUGCAGGUAGGUCGCCGUGGCCUUU [Anatartibe]”: the “apparent KD of K4 kissing-loop reporter” value runs as follows: (input ligand: FMN 200 uM) 0.143 µM; (input ligand: arginine 13.2 mM) 0.113 µM; (input ligand: none) 0.146 µM; under setting [1], 0.122 µM; under setting [2], 0.115 µM.

The values are drawn from the supplement of paper PMC9170038.
